Data taken from article PMC11482875 (bioRxiv, 2024).

Target: the molecule itself
Assay: SEC-MALS

B1: miniTRIM37 RBhcc B-box-2 mutant (other)
chain: MDEQSVESIAEVFRCFICMEKLRDARLCPHCSKLCCFSCIRRWLTEQRAQCPHCRAPLQLRELVNCRWAEEVTQQLDTLQLCSLTKHEENEKDKCENHHEKLSVFCWTCKKCICAQCADWGGMHGGHTFKPLAEIYEQHVTKVNEEVAKLRRRLMELITERNQVAKRVPKAPPEEKEALIARGKALGEETELLESLLQEVEHQLRSCSKSELISKSSEILMMFQQVHRK
B1 was tested, and the “stoichiometry N” value was 2.
